Test results: US20040235717A1 (published 2004)
Each block holds one binder with its values, some of them ahead of it.

Assays:
[1] = target: T1, androgen receptor, wild type, full length (UniProt P10275 1-920); test: GST pull-down of 35S-AR with PTEN deletion mutants
T1 construct: also called AR; wtAR
T1 sequence (looked up): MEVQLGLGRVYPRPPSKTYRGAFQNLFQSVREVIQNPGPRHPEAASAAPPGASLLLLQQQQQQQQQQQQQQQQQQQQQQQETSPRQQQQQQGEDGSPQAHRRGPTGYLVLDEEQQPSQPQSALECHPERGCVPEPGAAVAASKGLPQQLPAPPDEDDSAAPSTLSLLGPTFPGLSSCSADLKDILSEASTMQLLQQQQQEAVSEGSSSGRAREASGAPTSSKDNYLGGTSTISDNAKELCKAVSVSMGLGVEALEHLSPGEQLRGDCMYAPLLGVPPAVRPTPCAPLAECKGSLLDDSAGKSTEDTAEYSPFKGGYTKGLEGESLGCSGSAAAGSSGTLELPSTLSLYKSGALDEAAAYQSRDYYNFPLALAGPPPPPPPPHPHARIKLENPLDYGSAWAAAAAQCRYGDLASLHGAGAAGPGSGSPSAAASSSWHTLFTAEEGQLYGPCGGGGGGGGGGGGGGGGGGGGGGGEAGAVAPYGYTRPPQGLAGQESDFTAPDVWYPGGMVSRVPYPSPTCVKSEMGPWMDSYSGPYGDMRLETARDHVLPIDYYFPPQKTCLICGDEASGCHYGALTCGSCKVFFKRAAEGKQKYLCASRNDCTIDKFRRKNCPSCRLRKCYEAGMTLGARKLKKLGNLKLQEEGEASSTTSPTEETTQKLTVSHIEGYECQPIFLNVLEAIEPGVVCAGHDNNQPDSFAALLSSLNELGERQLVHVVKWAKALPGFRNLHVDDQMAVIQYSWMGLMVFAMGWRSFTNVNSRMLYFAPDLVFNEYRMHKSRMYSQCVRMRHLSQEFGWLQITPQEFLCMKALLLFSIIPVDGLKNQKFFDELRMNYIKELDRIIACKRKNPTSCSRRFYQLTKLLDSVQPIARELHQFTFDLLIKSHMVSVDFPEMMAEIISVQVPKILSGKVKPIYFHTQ

[2] = target: T1, androgen receptor, wild type, full …; test: co-immunoprecipitation in PC-3(AR)2 cells overexpressing Flag-Smad3, Flag-Smad4 and AR
[3] = target: T1, androgen receptor, wild type, full …; test: anti-Smad3 immunoprecipitation from PC-3(AR)2 cells, immunoblot for AR
[4] = target: T1, androgen receptor, wild type, full …; test: co-immunoprecipitation in prostate cancer cells

B1: GST-PTEN-#3 (aa 253-403) (other, UniProt P60484 253-403, looked up)
chain: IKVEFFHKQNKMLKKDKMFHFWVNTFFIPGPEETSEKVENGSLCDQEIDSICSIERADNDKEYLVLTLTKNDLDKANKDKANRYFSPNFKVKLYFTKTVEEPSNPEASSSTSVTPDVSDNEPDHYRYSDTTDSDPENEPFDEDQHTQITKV
notes: range 253-403; not shown: glutathione S-transferase (GST), pGEX-3x vector
binding result [1]: no binding

B2: N-terminal Flag-tagged, full-length Smad4 (other, human, UniProt Q13485 1-552, looked up)
chain: MDNMSITNTPTSNDACLSIVHSLMCHRQGGESETFAKRAIESLVKKLKEKKDELDSLITAITTNGAHPSKCVTIQRTLDGRLQVAGRKGFPHVIYARLWRWPDLHKNELKHVKYCQYAFDLKCDSVCVNPYHYERVVSPGIDLSGLTLQSNAPSSMMVKDEYVHDFEGQPSLSTEGHSIQTIQHPPSNRASTETYSTPALLAPSESNATSTANFPNIPVASTSQPASILGGSHSEGLLQIASGPQPGQQQNGFTGQPATYHHNSTTTWTGSRTAPYTPNLPHHQNGHLQHHPPMPPHPGHYWPVHNELAFQPPISNHPAPEYWCSIAYFEMDVQVGETFKVPSSCPIVTVDGYVDPSGGDRFCLGQLSNVHRTEAIERARLHIGKGVQLECKGEGDVWVRCLSDHAVFVQSYYLDREAGRAPGDAVHKIYPSAYIKVFDLRQCHRQMQQQAATAQAAAAAQAAAVAGNIPGPGSVGGIAPAISLSAAAGIGVDDLRRLCILRMSFVKGWGPDYPRQSIKETPCWIEIHLHRALQLLDEVLHTMPIADPQPLD
notes: Expressed in PC3-AR2 cells; also called Flag-Smad4; FLAG-Smad4; not shown: N-terminal Flag tag
binding result [2]: binds

B6: GST-PTEN-#1 (aa 1-107) (other, UniProt P60484 1-107, looked up)
chain: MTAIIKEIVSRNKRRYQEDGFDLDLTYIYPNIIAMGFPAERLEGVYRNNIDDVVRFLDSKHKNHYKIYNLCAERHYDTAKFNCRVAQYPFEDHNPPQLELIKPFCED
notes: not shown: glutathione S-transferase (GST), pGEM-KG vector
binding result [1]: no binding

Second part, the binder after the results:

binding result [2]: binds
B3: N-terminal Flag-tagged, full-length Smad3 (other, human, UniProt P84022 1-425, looked up)
chain: MSSILPFTPPIVKRLLGWKKGEQNGQEEKWCEKAVKSLVKKLKKTGQLDELEKAITTQNVNTKCITIPRSLDGRLQVSHRKGLPHVIYCRLWRWPDLHSHHELRAMELCEFAFNMKKDEVCVNPYHYQRVETPVLPPVLVPRHTEIPAEFPPLDDYSHSIPENTNFPAGIEPQSNIPETPPPGYLSEDGETSDHQMNHSMDAGSPNLSPNPMSPAHNNLDLQPVTYCEPAFWCSISYYELNQRVGETFHASQPSMTVDGFTDPSNSERFCLGLLSNVNRNAAVELTRRHIGRGVRLYYIGGEVFAECLSDSAIFVQSPNCNQRYGWHPATVCKIPPGCNLKIFNNQEFAALLAQSVNQGFEAVYQLTRMCTIRMSFVKGWGAEYRRQTVTSTPCWIELHLNGPLQWLDKVLTQMGSPSIRCSSVS
notes: Expressed in PC-3 or PC-3(AR)2 cells; also called Flag-Smad3; FLAG-Smad3; not shown: N-terminal Flag tag

binding result [3]: binds
B4: Smad3 (full length, untagged) (other, human, UniProt P84022 1-425, looked up)
chain: B3 chain
notes: also called endogenous Smad3; [35S]-labeled Smad3

binding result [4]: binds
B5: PTEN (phosphatase and tensin homolog deleted on chromosome ten), wild type, full length (enzyme)
chain: not shown
notes: Stood as in vitro expressed 35S-PTEN, as Dox-induced PTEN in LNCaP PTEN-C1 cells, as endogenous PTEN of CWR22 cells and as transfected PTEN in COS-1 cells; also called [35S]-PTEN; pCDNA3-PTEN
